Experimental data from PMC4607269 (Cell, 2015).

B1: GFP-xBuGZ-B (domain or fragment, Xenopus, UniProt Q7ZXV8 258-334, looked up)
chain: SAGQAQAHISGPVGTDFKPLNNIPATTAEHPKPTFPAYTQSTMSTTSTTNSTASKPSTSITSKPATLTTTSATSKLV
B2: GFP-xBuGZ-A (domain or fragment, Xenopus, UniProt Q7ZXV8 111-187, looked up)
chain: NQDDSDYDDDDDTAPSTSFQQMQTQQAFMPTMGQPGIPGLPGAPGMPPGITSLMPAVPPLISGIPHVMAGMHPHGMM
B3: YFP-tagged xBuGZ (Xenopus BuGZ) (natural protein)
chain: not shown
B4: GFP-xBuGZ-C (domain or fragment, Xenopus, UniProt Q7ZXV8 376-452, looked up)
chain: GAMMAPRPGLPPQQHGMRHPLPPHGQYGAPLQGMAGYHPGTMPPFGQGPPMVPPFQGGPPRPLMGIRPPVMSQGGRY

Target: His-xBuGZ (Xenopus, UniProt Q7ZXV8 1-452)
Test: incorporation into His-xBuGZ droplets

Binder | binding result
B1 | binds
B2 | binds
B3 | binds
B4 | binds
